From paper PMC5910400 (2018)
Substitutions are numbered along the chain they refer to.

B1: P1156 (evasin from Ixodes ricinus), purified, C-terminal StrepII:His tag (natural protein)
chain: DGGADDDNELFTVQYCGMNCTKDEGGTWTGCTGKKEGCKCYHESGKNYGLCLSTEYTDFSQYGNPSDSEIEAAKPKRSDTLSH
B2: CCL17 (protein)
chain: ARGTNVGRECCLEYFKGAIPLRKLKTWYQTSEDCSRDAIVFVTVQGRAICSDPNNKRVKNAVKYLQSLERS
B3: CCL24 (protein)
chain: VVIPSPCCMFFVSKRIPENRVVSYQLSSRSTCLKAGVIFTTKKGQQFCGDPKQEWVQRYMKNLDAKQKKASPRARAVAVKGPVQRYPGNQTTC
B4: CCL19 (protein)
chain: GTNDAEDCCLSVTQKPIPGYIVRNFHYLLIKDGCRVPAVVFTTLRGRQLCAPPDQPWVERIIQRLQRTSAKMKRRSS
B5: CCL23 (ligand)
chain: RVTKDAETEFMMSKLPLENPVLLDRFHATSADCCISYTPRSIPCSLLESYFETNSECSKPGVIFLTKKGRRFCANPSDKQVQVCMRMLKLDTRIKTRKN
B6: CCL18 (protein)
chain: AQVGTNKELCCLVYTSWQIPQKFIVDYSETSPQCPKPGVILLTKRGRQICADPNKKWVQKYISDLKLNA
B7: CCL11 (protein)
chain: not shown
B8: CCL4L1 (protein)
chain: APMGSDPPTACCFSYTARKLPRNFVVDYYETSSLCSQPAVVFQTKRGKQVCADPSESWVQEYVYDLELN
B9: CCL4 (protein)
chain: B8 chain with G47S
B10: CCL8 (protein)
chain: QPDSVSIPITCCFNVINRKIPIQRLESYTRITNIQCPKEAVIFKTKRGKEVCADPKERWVRDSMKHLDQIFQNLKP
B11: CCL14 (protein)
chain: TKTESSSRGPYHPSECCFTYTTYKIPRQRIMDYYETNSQCSKPGIVFITKRGHSVCTNPSDKWVQDYIKDMKEN
B12: CCL5 (ligand)
chain: SPYSSDTTPCCFAYIARPLPRAHIKEYFYTSGKCSNPAVVFVTRKNRQVCANPEKKWVREYINSLEMS
B13: CCL3L1 (ligand)
chain: APLAADTPTACCFSYTSRQIPQNFIADYFETSSQCSKPSVIFLTKRGRQVCADPSEEWVQKYVSDLELSA
B14: CCL15 (protein)
chain: QFTNDAETELMMSKLPLENPVVLNSFHFAADCCTSYISQSIPCSLMKSYFETSSECSKPGVIFLTKKGRQVCAKPSGPGVQDCMKKLKPYSI
B15: CCL27 (protein)
chain: FLLPPSTACCTQLYRKPLSDKLLRKVIQVELQEADGDCHLQAFVLHLAQRSICIHPQNPSLSQWFEHQERKLHGTLPKLNFGMLRKMG
B16: CCL3 (ligand)
chain: SLAADTPTACCFSYTSRQIPQNFIADYFETSSQCSKPGVIFLTKRSRQVCADPSEEWVQKYVSDLELSA
B17: CCL13 (ligand)
chain: not shown
B18: CCL16 (protein)
chain: QPKVPEWVNTPSTCCLKYYEKVLPRRLVVGYRKALNCHLPAIIFVTKRNREVCTNPNDDWVQEYIKDPNLPLLPTRNLSTVKIITAKNGQPQLLNSQ
B19: CCL21 (ligand)
chain: SDGGAQDCCLKYSQRKIPAKVVRSYRKQEPSLGCSIPAILFLPRKRSQAELCADPKELWVQQLMQHLDKTPSPQKPAQGCRKDRGASKTGKKGKGSKGCKRTERSQTPKGP

Target: CXCL2 (human, UniProt P19875 35-107)
Experiment: BLI

| Binder | Kd [nM] |
| --- | --- |
| B1 | 51 |

Target: CXCL8 (human)
Sequence (chain, as listed by the source): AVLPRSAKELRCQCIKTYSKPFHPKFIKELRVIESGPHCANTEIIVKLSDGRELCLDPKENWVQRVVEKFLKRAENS
Experiment: BLI

| Binder | Kd [nM] |
| --- | --- |
| B1 | 2.9 |

Target: CXCL5 (human)
Experiment: BLI

| Binder | Kd [nM] |
| --- | --- |
| B1 | 30 |

Target: CXCL1 (human, UniProt P09341 35-107)
Experiment: BLI

| Binder | Kd [nM] |
| --- | --- |
| B1 | 5.8 |

Target: CXCL6 (human)
Experiment: BLI

| Binder | Kd [nM] |
| --- | --- |
| B1 | 63 |

Target: CXCL3 (human, UniProt P19876 35-107)
Experiment: BLI

| Binder | Kd [nM] |
| --- | --- |
| B1 | 70 |

Target: P1243:G4S:P1156 two-warhead evasin (Amblyomma americanum | Ixodes ricinus, UniProt A0A0C9S461;V5HBW0)
Experiment: BLI

| Binder | Kd [nM] |
| --- | --- |
| B2 | 4.5 |
| B3 | 9.4 |
| B4 | 2.5 |
| B5 | 0.37 |
| B6 | 0.3 |
| B7 | 5.1 |
| B8 | 14 |
| B9 | 12 |
| B10 | 93 |
| B11 | 2.1 |
| B12 | 3.4 |
| B13 | 6.4 |
| B14 | 11 |
| B15 | 23 |
| B16 | 25 |
| B17 | 1.5 |
| B18 | 0.93 |

Target: P1156:G4S:P1243 two-warhead evasin (Ixodes ricinus | Amblyomma americanum, UniProt V5HBW0;A0A0C9S461)
Experiment: BLI

| Binder | Kd [nM] |
| --- | --- |
| B2 | 5.4 |
| B3 | 4.5 |
| B4 | 3 |
| B5 | 0.098 |
| B6 | 0.001 |
| B7 | 1.7 |
| B8 | 15 |
| B9 | 12 |
| B10 | 84 |
| B11 | 1.1 |
| B12 | 2.6 |
| B13 | 5.3 |
| B14 | 12 |
| B15 | 17 |
| B19 | 29 |
| B17 | 0.7 |
| B18 | 0.65 |
